Assay results: patent US20220185908A1
Like-named read-outs stand apart in the source and are kept apart here.

How the values were obtained:
[1] = molecular target: CD38 on cells (Raji, Daudi, REH, CD38-transfected HEK293) (human) (UniProt P28907); assay: flow cytometry, Raji cells expressing CD19 and CD38
[2] = molecular target: CD38 on cells (Raji, Daudi, REH, CD38-transfected HEK293) (human) (UniProt P28907); assay: flow cytometry, Raji cells; top asymptote fixed at about the maximum response of Darzalex
[3] = molecular target: CD38 on cells (Raji, Daudi, REH, CD38-transfected HEK293) (human) (UniProt P28907); assay: flow cytometry, Raji cells expressing CD19 and CD38; remark: listed apart in the source

## Darzalex ® (CD38 control) (antibody)
[1]
  EC50: 1.27 nM
[2]
  Adjusted EC50: 1.27 nM
[3]
  EC50: 0.195 µg/mL
  Max MFI: 4.02e+06 MFI
